Consider two molecules from patent CN114989295A.

The assay has as its target 重组MERS-CoV-S蛋白 (MERS-CoV) (UniProt K9N5Q8). Description: indirect ELISA, hybridoma supernatant on coated MERS-S protein. A general note: ELISA stands for enzyme-linked immunosorbent assay.
UniProt K9N5Q8, sequence (K9N5Q8 324-644 limits assumed): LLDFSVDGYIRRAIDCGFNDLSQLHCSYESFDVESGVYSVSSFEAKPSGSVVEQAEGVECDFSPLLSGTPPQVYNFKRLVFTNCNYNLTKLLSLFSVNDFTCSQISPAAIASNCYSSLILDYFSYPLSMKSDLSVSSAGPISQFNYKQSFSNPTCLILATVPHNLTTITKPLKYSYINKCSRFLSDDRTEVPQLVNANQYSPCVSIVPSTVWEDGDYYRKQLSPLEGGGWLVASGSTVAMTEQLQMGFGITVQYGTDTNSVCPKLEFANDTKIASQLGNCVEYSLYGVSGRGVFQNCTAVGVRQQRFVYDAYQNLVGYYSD

B1: 抗MERS-CoV鼠单克隆抗体6E4 (antibody, V domains shown)
VH: EVDLSESLGGQVKVTGSLKLDEAASGSMHGGDVKEGASLWLWVRVTPEIELEWRDAQGVAFISAGESSTYRFTTSRDNARSDRYLQMSELRKLDTAFIYCGRYRVTLSTLQEYSWGQGDWVTTDA
VL: DIQETQTRSVLSAALGSRVTISCSMDIANYVNEYQWYQSPKPDFDVKLSIYEVLIYRSVRLQSGVPSRFSKKGSLDDYSLTISCFEPEDVEIYCNDCQILGSELPEFGDFTKIEILR
For B1, the 效价 (titer (1:dilution)) was found to be 256000 and the 敏感性 amounted to 2.31 ng/mL.

B2: 抗MERS-CoV鼠单克隆抗体7G5 (antibody, V domains shown)
VH: EVQGQVSGLKLVVEGASVLKSCTSTGFLSGMGLVMPGGSNHSWVQEVPEIVLEWSGDWSANYSQDGLITSKATASADTTDSTAYLQLSEFDSEDTAVSFSCASNWLMLYMASLNWGQGEDDTVQS
VL: DISLTRSPSTLSATPQESVSLSCKQLISSYLMWTQWYQSKSHESLELTEKVELIYSNSHLHTGIPFSFSGDDSGTDFFLKVNVNSTEDFGEYFCSCQDQNTSERGDFGQATKLLEK
Consider B2, for which the 效价 (titer (1:dilution)) was 256000 and the 敏感性 was 0.561 ng/mL.
